Results published in article PMC10771525 (Communications Biology, 2024).
Like-named read-outs stand apart in the source and are kept apart here. Where a SMILES comes first, the peptide text is derived from it. [ ]: non-standard residue; d: D form.

How the values were obtained:
PTGIR = PTGIR (Homo sapiens, UniProt P43119); assay: GPCR panel (control), Arrestin, CHO-K1; assay type: cell-based; details: reference agonist
MTNR1A = assay: GPCR panel (control), Arrestin, CHO-K1; assay type: cell-based, human; details: reference agonist
MTNR1B = assay: GPCR panel (control), Arrestin, CHO-K1; assay type: cell-based, human; details: reference agonist
P2RY12 = assay: GPCR panel (control), Arrestin, CHO-K1; assay type: cell-based, human; details: reference agonist
P2RY11 = assay: GPCR panel (control), Arrestin, CHO-K1; assay type: cell-based, human; details: reference agonist
OPRD1 = biological target: T1, OPRD1 (Homo sapiens, UniProt P41143); assay: GPCR panel (control), Arrestin, CHO-K1; assay type: cell-based; details: reference agonist
T1 construct: expressed in transfected cells; host or cells: CHO-K1

TBXA2R = assay: GPCR panel (control), Arrestin, U2OS; assay type: cell-based, human; details: reference agonist
KISS1R = biological target: T2, KISS1R (Homo sapiens, UniProt Q969F8); assay: GPCR panel (control), Arrestin, U2OS; assay type: cell-based
T2 construct: expressed in transfected cells; host or cells: U2OS

PTAFR = assay: GPCR panel (control), Arrestin, CHO-K1; assay type: cell-based, human; details: reference agonist
P2RY2 = assay: GPCR panel (control), Arrestin, U2OS; assay type: cell-based, human; details: reference agonist
P2RY4 = assay: GPCR panel (control), Arrestin, CHO-K1; assay type: cell-based, human; details: reference agonist
P2RY6 = assay: GPCR panel (control), Arrestin, CHO-K1; assay type: cell-based, human; details: reference agonist
CCR1 = assay: GPCR panel (control), Arrestin, CHO; assay type: cell-based, human; details: reference agonist
MRGPRX2 = biological target: T3, MRGPRX2 (Homo sapiens, UniProt Q96LB1); assay: calcium mobilization assay, CHEM-1 cells recombinantly expressing MRGPRX2; assay type: cell-based; design: host or cells: CHEM-1 adherent rat hematopoietic cells; details: for MRGPRX2 activation, Readout 1 / MRGPRX2 activation, Readout 2: Fig. 3b, fragment 1 µM, normalized to 1 µM CXCL14 (100%); for MRGPRX2 activation (in words): large CXCL14 fragments, CHEM1 cells overexpressing MRGPRX2; for EC50: Fluo-8, FLIPR, read-out: EC50, calcium mobilization assays; for pEC50: Fig. 3d
T3 sequence (Q96LB1 1-330): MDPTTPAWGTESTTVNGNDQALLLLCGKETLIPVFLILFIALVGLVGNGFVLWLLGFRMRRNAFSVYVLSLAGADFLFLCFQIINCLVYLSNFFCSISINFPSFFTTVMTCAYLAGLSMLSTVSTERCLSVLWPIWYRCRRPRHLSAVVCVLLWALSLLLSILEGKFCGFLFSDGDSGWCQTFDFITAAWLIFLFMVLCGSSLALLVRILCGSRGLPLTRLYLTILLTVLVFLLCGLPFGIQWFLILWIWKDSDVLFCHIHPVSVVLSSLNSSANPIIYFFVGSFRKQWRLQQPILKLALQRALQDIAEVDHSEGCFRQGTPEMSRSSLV
Excerpt: To confirm the initial results obtained in the β-arrestin recruitment assays, we established calcium mobilization assays in two different recombinant cell lines, CHEM-1 and LN229 cells, respectively. CHEM-1 cells are adherent rat hematopoietic cells with a high endogenous expression level of the promiscuous Gα15 protein enabling the measuring of calcium signaling of a large variety of GPCRs. […]. Subsequently, we employed recombinant human glioblastoma LN229 cells, a human cell line derived from glioblastoma multiforme tumors. […].
The cell lines CHEM1 and CHEM1-MRGPRX2 are adherent rat cell lines (HTSCHEM-1RTA, HTS058RTA, Merck-Millipore, Darmstadt, Germany); which were cultured under standard cell culture conditions.
A cell-based fluorometric assay was employed for the determination of intracellular calcium release using Fluo-8. Cells were seeded into microtiter plates and incubated under standard cell culture conditions. After 24 h the medium was removed, and the cells were washed with phosphate-buffered saline (PBS). The cells were incubated with loading buffer (40 ml PBS with 2 mM Ca^2+, 800 µl of brilliant black solution (2%), 732 µl of probenecid solution (0.5 M) in 1 N NaOH, 400 µL of pluronic (10%) in water, and 152 µl of Fluo-8 (5.7 ng/ml in water)) for 30 min. For fluorescence readout and compound testing a FLIPR tetra system was used according to the manufacture’s protocol (Molecular Devices, CA 94089- 1136, USA).

[1] = biological target: MRGPRX2 in CHEM-1 cells (human) (UniProt Q96LB1)
[2] = biological target: MRGPRX2 in the calcium mobilization assays of the small CXCL14 fragments and mutants (human) (UniProt Q96LB1)
[3] = biological target: T4, mouse MRGPRB2 in 1321N1 astrocytoma cells (mouse) (UniProt Q3KNA1)
T4 sequence: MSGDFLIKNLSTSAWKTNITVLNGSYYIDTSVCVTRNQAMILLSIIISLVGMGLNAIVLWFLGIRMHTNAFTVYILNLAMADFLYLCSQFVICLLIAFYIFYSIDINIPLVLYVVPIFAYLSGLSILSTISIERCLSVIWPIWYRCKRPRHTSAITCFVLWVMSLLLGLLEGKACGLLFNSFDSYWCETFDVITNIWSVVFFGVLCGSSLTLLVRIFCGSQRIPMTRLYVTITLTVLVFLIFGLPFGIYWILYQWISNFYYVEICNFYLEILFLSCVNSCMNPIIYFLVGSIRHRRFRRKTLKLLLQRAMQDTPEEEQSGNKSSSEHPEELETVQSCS

[4] = biological target: MRGPRX2 fused to ProLink (PK), in CHO β-arrestin cells (human) (UniProt Q96LB1)
[5] = biological target: MRGPRX2 in the calcium mobilization assays of the small CXCL14 fragments and mutants (human) (UniProt Q96LB1); remark: listed apart in the source
PROKR1 = assay: GPCR panel (control), Arrestin, CHO-K1; assay type: cell-based, human; details: reference agonist
PROKR2 = assay: GPCR panel (control), Arrestin, CHO-K1; assay type: cell-based, human; details: reference agonist
[6] = CHEM-1 cells recombinantly expressing MRGPRX2

PTGIR, sequence (P43119 1-383): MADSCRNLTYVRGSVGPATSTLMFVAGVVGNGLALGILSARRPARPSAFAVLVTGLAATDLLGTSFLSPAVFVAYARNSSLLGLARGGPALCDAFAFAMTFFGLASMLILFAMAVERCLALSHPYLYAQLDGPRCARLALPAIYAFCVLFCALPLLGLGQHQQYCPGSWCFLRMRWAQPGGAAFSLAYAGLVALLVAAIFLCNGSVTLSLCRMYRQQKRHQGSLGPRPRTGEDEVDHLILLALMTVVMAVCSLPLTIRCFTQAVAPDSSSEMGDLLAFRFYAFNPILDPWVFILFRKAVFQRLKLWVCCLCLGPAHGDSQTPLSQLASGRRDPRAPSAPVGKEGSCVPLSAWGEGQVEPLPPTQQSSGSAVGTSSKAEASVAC
T2 sequence (Q969F8 whole entry): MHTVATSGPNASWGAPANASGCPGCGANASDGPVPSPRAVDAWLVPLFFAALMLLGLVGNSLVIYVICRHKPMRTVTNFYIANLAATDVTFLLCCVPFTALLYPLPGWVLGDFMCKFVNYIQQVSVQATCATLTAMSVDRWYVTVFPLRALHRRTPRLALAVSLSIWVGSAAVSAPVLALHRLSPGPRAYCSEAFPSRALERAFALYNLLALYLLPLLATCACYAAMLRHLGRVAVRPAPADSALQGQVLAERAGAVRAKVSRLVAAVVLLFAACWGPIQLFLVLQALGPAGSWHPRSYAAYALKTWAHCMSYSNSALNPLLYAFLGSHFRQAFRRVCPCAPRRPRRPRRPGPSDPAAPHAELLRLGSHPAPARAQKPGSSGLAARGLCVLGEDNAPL
T1 sequence (P41143 whole entry): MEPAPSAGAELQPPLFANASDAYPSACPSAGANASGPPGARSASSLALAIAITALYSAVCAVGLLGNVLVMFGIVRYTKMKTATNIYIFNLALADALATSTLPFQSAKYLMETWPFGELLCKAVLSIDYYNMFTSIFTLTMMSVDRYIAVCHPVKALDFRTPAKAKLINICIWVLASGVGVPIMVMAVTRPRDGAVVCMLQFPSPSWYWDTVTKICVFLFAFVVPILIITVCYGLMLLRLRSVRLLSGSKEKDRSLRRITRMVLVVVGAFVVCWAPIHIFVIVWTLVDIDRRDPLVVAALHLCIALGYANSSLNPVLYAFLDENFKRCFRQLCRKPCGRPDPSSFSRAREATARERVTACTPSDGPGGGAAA

Molecule: CC#CCC(C)[C@H](O)/C=C/[C@@H]1[C@H]2c3cccc(CCCC(=O)O)c3O[C@H]2C[C@H]1O (mixture of isomers) [Beraprost]
- EC50 (PTGIR): 0.39 µM
- EC80 (PTGIR): 18 µM

Molecule: COc1ccc2[nH]c(I)c(CCNC(C)=O)c2c1 [2-Iodomelatonin]
- EC50 (MTNR1A): 85 pM
- EC80 (MTNR1A): 0.0051 µM
- EC50 (MTNR1B): 84 pM
- EC80 (MTNR1B): 0.0042 µM

Molecule: CSc1nc(N)c2ncn([C@@H]3O[C@H](COP(=O)(O)OP(=O)(O)O)[C@@H](O)[C@H]3O)c2n1 [2-methylthio-ADP]
- EC50 (P2RY12): 0.0026 µM
- EC80 (P2RY12): 0.058 µM

Molecule: Nc1ncnc2c1ncn2[C@@H]1O[C@H](COP(=O)(O)OP(=O)(O)OP(=O)(O)O)[C@@H](O)[C@H]1O [ATP]
- EC50 (P2RY11): 350 µM
- EC80 (P2RY11): 13000 µM

Molecule: CSCC[C@H](NC(=O)[C@H](CC(C)C)NC(=O)[C@H](Cc1cnc[nH]1)NC(=O)[C@H](Cc1ccccc1)NC(=O)[C@@H](CCSC)NC(=O)[C@@H](N)Cc1ccc(O)cc1)C(=O)N[C@@H](CC(=O)O)C(N)=O [Deltorphin A] (H-Y[dM]FHLMD-NH2)
- EC50 (OPRD1): 0.0023 µM
- EC80 (OPRD1): 0.054 µM

Molecule: O=C(O)CCC/C=C\C[C@@H]1[C@@H](/C=C/[C@@H](O)COc2ccc(I)cc2)[C@H]2CC[C@@H]1O2 [I-BOP]
- EC50 (TBXA2R): 0.12 µM
- EC80 (TBXA2R): 2.4 µM

Molecule: CC(C)C[C@H](NC(=O)CNC(=O)[C@H](Cc1ccccc1)NC(=O)[C@H](CO)NC(=O)[C@H](CC(N)=O)NC(=O)[C@H](Cc1c[nH]c2ccccc12)NC(=O)[C@H](CC(N)=O)NC(=O)[C@@H](N)Cc1ccc(O)cc1)C(=O)N[C@@H](CCCN=C(N)N)C(=O)N[C@@H](Cc1ccccc1)C(N)=O [Kisspeptin-10]
- EC50 (KISS1R): 0.063 µM
- EC80 (KISS1R; reference agonist, KISS1R, U2OS, Arrestin): 1.1 µM

Molecule: CCCCCCCCCCCCCCCCOC[C@H](COP(=O)([O-])OCC[N+](C)(C)C)OC(C)=O [PAF]
- EC50 (PTAFR): 0.0063 µM
- EC80 (PTAFR): 0.32 µM

Molecule: O=c1ccn([C@@H]2O[C@H](COP(=O)(O)OP(=O)(O)OP(=O)(O)O)[C@@H](O)[C@H]2O)c(=O)[nH]1 [UTP]
- EC50 (P2RY2): 0.42 µM
- EC80 (P2RY2): 12 µM
- EC50 (P2RY4): 0.11 µM
- EC80 (P2RY4): 3.3 µM
- EC50 (P2RY6): 0.1 µM
- EC80 (P2RY6): 2.7 µM

Molecule: CCL3/MIP1a
- EC50 (CCR1): 0.0081 µM
- EC80 (CCR1): 0.57 µM

Molecule: CXCL14(1-44): large CXCL14 fragment, inactive (SKCKCSRKGPKIRYSDVKKLEMKPKYPHCEEKMVIITTKSVSRY)
- MRGPRX2 activation, Readout 1 (MRGPRX2): 0.3%
- MRGPRX2 activation, Readout 2 (MRGPRX2): 0.6%
- MRGPRX2 activation (in words) (MRGPRX2): inactive

B1: CXCL14(1-63): large CXCL14 fragment, inactive (peptide)
chain: SKCKCSRKGPKIRYSDVKKLEMKPKYPHCEEKMVIITTKSVSRYRGQEHCLHPKLQSTKRFIK
- MRGPRX2 activation, Readout 1 (MRGPRX2): 36%
- MRGPRX2 activation, Readout 2 (MRGPRX2): 38%
- MRGPRX2 activation (in words) (MRGPRX2): inactive

B2: CXCL14(1-11/18-77) (domain or fragment)
chain: SKCKCSRKGPKKKLEMKPKYPHCEEKMVIITTKSVSRYRGQEHCLHPKLQSTKRFIKWYNAWNEKRRVYEE
- EC50, calcium mobilization, CHEM1 cells overexpressing MRGPRX2 [1]: 0.379 µM
- Emax, calcium mobilization, CHEM1 cells overexpressing MRGPRX2, normalized to the maximal effect of CXCL14 [1]: 205%
- improvement of potency compared to CXCL14 (MRGPRX2; [6]): 3 fold
- EC50 (MRGPRX2; [6]): 0.379 µM
- Emax, calcium mobilization assays (MRGPRX2; CHEM-1 cells recombinantly expressing MRGPRX2, normalized to the maximal effect of CXCL14): 205%
- MRGPRX2 activation, Readout 1 (MRGPRX2): 203%
- MRGPRX2 activation, Readout 2 (MRGPRX2): 208%
- pEC50 (MRGPRX2; replicate column 1): 6.419
- pEC50 (MRGPRX2; replicate column 2): 6.454

Molecule: KRFIKWY [CXCL14(59-65)]
- EC50, calcium mobilization at MRGPRX2 [2]: 0.316 µM
- Emax, calcium mobilization at MRGPRX2 [2]: 155%
- EC50, calcium mobilization, 1321N1 astrocytoma cells expressing MRGPRB2 [3]: 1.26 µM
- Emax, calcium mobilization, 1321N1 astrocytoma cells expressing MRGPRB2 [3]: 127%

B3: CXCL14(15-77) (domain or fragment)
chain: SDVKKLEMKPKYPHCEEKMVIITTKSVSRYRGQEHCLHPKLQSTKRFIKWYNAWNEKRRVYEE
- EC50, calcium mobilization, CHEM1 cells overexpressing MRGPRX2 [1]: 0.751 µM
- EC50 (MRGPRX2; [6]): 0.751 µM
- pEC50 (MRGPRX2; replicate column 1): 6.175
- pEC50 (MRGPRX2; replicate column 2): 6.411

Molecule: STKRFIK [CXCL14(57-63)]
- EC50, β-arrestin recruitment at MRGPRX2 [4]: 50.4 µM
- Emax, β-arrestin recruitment at MRGPRX2, normalized to the maximal effect of CXCL14 [4]: 53%
- EC50, calcium mobilization at MRGPRX2 [5]: > 10 µM

Molecule: KSVSRYRGQEHCLHPKLQSTKRFIKWYNAWNEKRRVYEE (domain or fragment) [CXCL14(39-77)]
- EC50, calcium mobilization, CHEM1 cells overexpressing MRGPRX2 [1]: 0.68 µM
- Emax, calcium mobilization, CHEM1 cells overexpressing MRGPRX2, normalized to the maximal effect of CXCL14 [1]: 164%

Molecule: RFIKWY [CXCL14(60-65)]
- EC50, calcium mobilization at MRGPRX2 [2]: 2.15 µM
- Emax, calcium mobilization at MRGPRX2 [2]: 130%
- EC50, calcium mobilization, 1321N1 astrocytoma cells expressing MRGPRB2 [3]: 2.32 µM
- Emax, calcium mobilization, 1321N1 astrocytoma cells expressing MRGPRB2 [3]: 117%

B4: EG VEGF (protein, UniProt P58294 20-105, looked up)
Prokineticin-1: AVITGACERDVQCGAGTCCAISLWLRGLRMCTPLGREGEECHPGSHKVPFFRKRKHHTCPCLPNLLCSRFPDGRYRCSMDLKNINF
- EC50 (PROKR1): 0.049 µM
- EC80 (PROKR1): 2.4 µM
- EC50 (PROKR2): 0.0051 µM
- EC80 (PROKR2): 0.41 µM

B5: CXCL14(1-56/64-77): largest inactive CXCL14 fragment, lacks STKRFIK (peptide)
chain: SKCKCSRKGPKIRYSDVKKLEMKPKYPHCEEKMVIITTKSVSRYRGQEHCLHPKLQWYNAWNEKRRVYEE
- MRGPRX2 activation, Readout 1 (MRGPRX2): 10%
- MRGPRX2 activation, Readout 2 (MRGPRX2): 8%
- MRGPRX2 activation (in words) (MRGPRX2): inactive

B6: CXCL14(1-32/56-77) (domain or fragment)
chain: SKCKCSRKGPKIRYSDVKKLEMKPKYPHCEEKQSTKRFIKWYNAWNEKRRVYEE
- EC50, calcium mobilization, CHEM1 cells overexpressing MRGPRX2 [1]: 0.678 µM
- Emax, calcium mobilization, CHEM1 cells overexpressing MRGPRX2, normalized to the maximal effect of CXCL14 [1]: 175%
